Results reported in patent US20130196320A1, “METHOD FOR IMPROVING CLEAVAGE OF DNA BY ENDONUCLEASE SENSITIVE TO METHYLATION” (CELLECTIS, priority 2010, published 2013).

B1: XPC4: engineered meganuclease (SEQ ID NO: 2) designed to cleave xeroderma pigmentosum group C gene (XPC) (protein)
chain: MANTKYNEEFLLYLAGFVDGDGSIIAQIKPNQSHKFKHALQLTFKVTQKTQRRWFLDKLVDEIGVGYVQDSGSVSNYILSEIKPLHNFLTQLQPFLELKQKQANLALKIIEQLPSAKESPDKFLEVCTWVDQVAALNDSKTRKTTSETVRAVLDSLSEKKKSSPAAGGSDKYNQALSKYNQALSKYNQALSGGGGSNKKFLLYLAGFVDSDGSIIAQIKPNQSHKFKHQLSLAFQVTQKTQRRWFLDKLVDRIGVGYVRDRGSVSDYILSKIKPLHNFLTQLQPFLKLKQKQANLVLKIIEQLPSAKESPDKFLEVCTWVDQVAALNDSKTRKTTSETVRAVLDSLSEKKKSSP

Key:
[1] = test system: XPC4 endogenous locus in 293H cells; assay: Gene targeting induced by XPC4 meganuclease at its endogenous locus, PCR on cellular clones; assay type: cell-based, human; settings: for targeted events, % of the transfected cells: XPC4 meganuclease + repair matrix, n=2
Experimental: FIG. 11: XPC4 meganuclease efficiency is impaired by DNA methylation in vivo. 293H cells were co-transfected with 3 μg of XPC4 meganuclease expressing vector or empty vector and 2 μg of DNA repair matrix vector in presence or absence of DNA methylation inhibitor (5-aza-2′deoxycytidine). 480 individual cellular clones were analyzed in each condition for the presence of targeted events using specific PCR amplification.
Cell culture as well as general transfection conditions were described in “material and methods” section of part b) above. For this assay, 293H cells were co-transfected with 3 μg of XPC4 meganuclease expressing vector or empty vector and 2 μg of DNA repair matrix. The DNA repair matrix consists of a left and right arms corresponding to isogenic sequences of 1 kb located on both sides of the meganuclease recognition site. These two homology arms are separated by a heterologous fragment of 29 bp (sequence: […], SEQ ID NO: 64). Two days post-transfection, cells were replated in 10 cm dish. Two weeks later, individual clones were picked and subsequently amplified in 96 wells plates for 3 days. 480 individual cellular clones were then analyzed per condition. DNA extraction was performed with the ZR-96 genomic DNA kit (Zymo research) according to the supplier's protocol. The detection of targeted DNA matrix integrations was performed by specific PCR amplification using the primers: XPC4_F4: 5′-[…]-3′ (SEQ ID NO: 41) (located within the 29 bp of heterologous sequence, i.e. SEQ ID NO: 64) and XPC4_R4: 5′-[…]-3′ (located on the genomic sequence outside of the homology) (SEQ ID NO: 42).

[2] = test system: XPC4 target locus in 293H cells; assay: Meganuclease-induced mutagenesis at XPC4 target locus by deep sequencing, 5-aza-2-deoxycytidine treatment; assay type: cell-based, human
Experimental: FIG. 10: Frequencies of mutagenesis events measured by deep sequencing. Cells were pre-treated with 5-aza-2-deoxycytidine at 0.2 μM or 1 μM 48 hours before transfection with XPC4 meganuclease or empty vector. The treatment was maintained 48 hours post-transfection. Two days post-transfection, the genomic DNA was extracted and a PCR with primers surrounding target site was performed. The results were expressed as a percentage of PCR fragments containing a mutation.
The human 293H cells (ATCC) were plated at a density of 1.2×10^6 cells per 10 cm dish in complete medium (DMEM supplemented with 2 mM L-glutamine, penicillin (100 IU/ml), streptomycin (100 μg/ml), amphotericin B (Fongizone: 0.25 μg/ml, Invitrogen-Life Science) and 10% FBS) supplemented with 5-aza-deoxycytidine. The next day, cells were transfected with 3 μg of meganuclease expression vector in the presence of 5-aza-deoxycytidine and Lipofectamine 2000 transfection reagent (Invitrogen) according to the manufacturer's protocol.
Cells were pre-treated with 5-aza-deoxycytidine at 0.2 μM or 1 μM 48 hours before transfection and the treatment was maintained 48 hours post-transfection. As a control, cells not treated with 5-aza-2-deoxycytidine (NT) were used. Extraction of genomic DNA was performed 48 hours after transfection.
After genomic DNA extraction, the XPC4 target locus was amplified with specific primers flanked by specific adaptator needed for HTS sequencing on the 454 sequencing system (454 Life Sciences)
5000 to 10 000 sequences per sample were analyzed.

[3] = test system: RAG target in human RAG1 gene, 293H cells; assay: Meganuclease-induced mutagenesis assay at RAG recognition site; assay type: cell-based; settings: Empty vector, 1 μM 5-aza-2′-deoxycytidine, RAG locus
Experimental: The human 293H cells (ATCC) were plated at a density of 1.2×10^6 cells per 10 cm dish in complete medium (DMEM supplemented with 2 mM L-glutamine, penicillin (100 IU/ml), streptomycin (100 μg/ml), amphotericin B (Fongizone: 0.25 μg/ml, Invitrogen-Life Science) and 10% FBS). The cells were pre-treated with 5-aza-deoxycytidine at 0.2 μM or 1 μM, 48 hours before transfection and the treatment was maintained 48 hours post-transfection. The medium was changed every day. The cells were transfected with 3 μg of DNA plasmids encoding meganuclease for RAG or 2.5 μg of each monomer CAPNS1 using Lipofectamine 2000 transfection reagent (Invitrogen) according to the manufacturer's protocol.
The efficiency of the meganuclease to promote mutagenesis at its endogenous recognition site was evaluated by sequencing the DNA surrounding the meganuclease cleavage site. Two days post-transfection, genomic DNA was extracted. 200 ng of genomic DNA were used to amplify (PCR amplification) the endogenous locus surrounding the meganuclease cleavage site. PCR amplification is performed to obtain a fragment flanked by specific adaptor sequences [adaptor A: 5′-[…]-NNNN-3′(SEQ ID NO: 46) and adaptor B, 5′-[…]-3′ (SEQ ID NO: 47)] provided by the company offering sequencing service (GATC Biotech AG, Germany) on the 454 sequencing system (454 Life Sciences). The primers sequences used for PCR amplification were:
RAG_F1: 5′-[…]-NNNN-[…] (SEQ ID NO: 57) and
RAG_R1: 5′-[…]-[…]-3′ (SEQ ID NO: 58) and CAPNS1_J3: 5′-[…]-NNNN-[…] (SEQ ID NO: 59) and CAPNS1_R3: 5′-[…]-[…]-3′ (SEQ ID NO: 60). Sequences specific to the locus are underlined. The sequence NNNN in primer F1 is a Barcode sequence (Tag) needed to link the sequence with a PCR product. The percentage of PCR fragments carrying insertion or deletion at the meganuclease cleavage site is related to the mutagenesis induced by the meganuclease through NHEJ pathway in a cell population, and therefore correlates with the meganuclease activity at its endogenous recognition site. 5000 to 10000 sequences were analyzed per conditions.

Row | Molecule | targeted events ([1]; absence of meganuclease, with 5-aza-2′deoxycytidine treatment) | mutagenesis ([2]; empty vector, 1 μM of 5-aza-2′deoxycytidine) | mutagenesis, PCR fragments carrying a mutation [3] [%] | mutagenesis, PCR fragments carrying a mutation ([3]; listed as 5-aza-2′-deoxycytidine) [%] | targeted events, % of the transfected cells ([1]; 5-aza-2′deoxycytidine (0.2 μM)) | targeted events, % of the transfected cells ([1]; absence of 5-aza-2′deoxycytidine) | increase of targeted event frequency ([1]; with 5-aza-2′deoxycytidine (0.2 μM) vs without) [fold] | PCR fragments carrying a mutation ([2]; XPC4 meganuclease, absence of 5-aza-2′deoxycytidine) | mutations ([2]; XPC4 meganuclease, samples treated with 5-aza-2′deoxycytidine)
1 | Nc1ncn([C@H]2C[C@H](O)[C@@H](CO)O2)c(=O)n1 [5-aza-2′deoxycytidine, reference compound] | no targeted events could be detected | low or absent | 0.04 | 0.04 ± 0.05 | – | – | – | – | –
2 | B1 | – | – | – | – | 12.5%±0.26 | 1.05%±0.34 | 12 | 0.2-0.5% | up to 7.6%
